Measurements published in patent US7998940B2, “Aptamers to von Willebrand factor and their use as thrombotic disease therapeutics” (Archemix Corp., priority 2004, dated 2011).
Read-outs that look alike come from different tables or passages of the source. Oligonucleotides are written 5' to 3', each unit as a sugar letter and its base; * is a phosphorothioate linkage, no mark a phosphodiester; rarer units and linkages stand in square brackets, end groups in braces. Plain capitals give the bases only. {PEG20K-NH2} = 20 kDa PEG attached to the 5' nucleotide via an amine linker; [invdT] = inverted (3'-3') thymidine; d = 2'-deoxy (DNA); m = 2'-O-methyl

Experiments:
[1] = tested on: full length human vWF binding to lyophilized platelets; experiment: Full length human von Willebrand Factor platelet binding assay (FACS); assay type: cell-based; conditions: 5 nM full length human vWF, lyophilized platelets, botrocetin
Method in brief: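 Aptamer titrations (0.1–1000 nM) pre-incubated with 5 nM full-length human vWF, then added to lyophilized platelets plus botrocetin for 15 min at 37 °C in PBS/0.5% BSA. Bound vWF detected by anti-vWF then FITC secondary antibody via flow cytometry MFI; % inhibition versus no-aptamer binding fitted for IC50.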

[2] = target: vWF (Homo sapiens, UniProt P04275, D1472H/Q852R/T1381A); experiment: cellular / biological vWF dependent assays of Example 3, not specified further; assay type: cell-based; conditions: in words; FACS, BIPA (and PFA-100) assays of Example 3
Chain of vWF (P04275 764-2813 Q852R/T1381A/D1472H): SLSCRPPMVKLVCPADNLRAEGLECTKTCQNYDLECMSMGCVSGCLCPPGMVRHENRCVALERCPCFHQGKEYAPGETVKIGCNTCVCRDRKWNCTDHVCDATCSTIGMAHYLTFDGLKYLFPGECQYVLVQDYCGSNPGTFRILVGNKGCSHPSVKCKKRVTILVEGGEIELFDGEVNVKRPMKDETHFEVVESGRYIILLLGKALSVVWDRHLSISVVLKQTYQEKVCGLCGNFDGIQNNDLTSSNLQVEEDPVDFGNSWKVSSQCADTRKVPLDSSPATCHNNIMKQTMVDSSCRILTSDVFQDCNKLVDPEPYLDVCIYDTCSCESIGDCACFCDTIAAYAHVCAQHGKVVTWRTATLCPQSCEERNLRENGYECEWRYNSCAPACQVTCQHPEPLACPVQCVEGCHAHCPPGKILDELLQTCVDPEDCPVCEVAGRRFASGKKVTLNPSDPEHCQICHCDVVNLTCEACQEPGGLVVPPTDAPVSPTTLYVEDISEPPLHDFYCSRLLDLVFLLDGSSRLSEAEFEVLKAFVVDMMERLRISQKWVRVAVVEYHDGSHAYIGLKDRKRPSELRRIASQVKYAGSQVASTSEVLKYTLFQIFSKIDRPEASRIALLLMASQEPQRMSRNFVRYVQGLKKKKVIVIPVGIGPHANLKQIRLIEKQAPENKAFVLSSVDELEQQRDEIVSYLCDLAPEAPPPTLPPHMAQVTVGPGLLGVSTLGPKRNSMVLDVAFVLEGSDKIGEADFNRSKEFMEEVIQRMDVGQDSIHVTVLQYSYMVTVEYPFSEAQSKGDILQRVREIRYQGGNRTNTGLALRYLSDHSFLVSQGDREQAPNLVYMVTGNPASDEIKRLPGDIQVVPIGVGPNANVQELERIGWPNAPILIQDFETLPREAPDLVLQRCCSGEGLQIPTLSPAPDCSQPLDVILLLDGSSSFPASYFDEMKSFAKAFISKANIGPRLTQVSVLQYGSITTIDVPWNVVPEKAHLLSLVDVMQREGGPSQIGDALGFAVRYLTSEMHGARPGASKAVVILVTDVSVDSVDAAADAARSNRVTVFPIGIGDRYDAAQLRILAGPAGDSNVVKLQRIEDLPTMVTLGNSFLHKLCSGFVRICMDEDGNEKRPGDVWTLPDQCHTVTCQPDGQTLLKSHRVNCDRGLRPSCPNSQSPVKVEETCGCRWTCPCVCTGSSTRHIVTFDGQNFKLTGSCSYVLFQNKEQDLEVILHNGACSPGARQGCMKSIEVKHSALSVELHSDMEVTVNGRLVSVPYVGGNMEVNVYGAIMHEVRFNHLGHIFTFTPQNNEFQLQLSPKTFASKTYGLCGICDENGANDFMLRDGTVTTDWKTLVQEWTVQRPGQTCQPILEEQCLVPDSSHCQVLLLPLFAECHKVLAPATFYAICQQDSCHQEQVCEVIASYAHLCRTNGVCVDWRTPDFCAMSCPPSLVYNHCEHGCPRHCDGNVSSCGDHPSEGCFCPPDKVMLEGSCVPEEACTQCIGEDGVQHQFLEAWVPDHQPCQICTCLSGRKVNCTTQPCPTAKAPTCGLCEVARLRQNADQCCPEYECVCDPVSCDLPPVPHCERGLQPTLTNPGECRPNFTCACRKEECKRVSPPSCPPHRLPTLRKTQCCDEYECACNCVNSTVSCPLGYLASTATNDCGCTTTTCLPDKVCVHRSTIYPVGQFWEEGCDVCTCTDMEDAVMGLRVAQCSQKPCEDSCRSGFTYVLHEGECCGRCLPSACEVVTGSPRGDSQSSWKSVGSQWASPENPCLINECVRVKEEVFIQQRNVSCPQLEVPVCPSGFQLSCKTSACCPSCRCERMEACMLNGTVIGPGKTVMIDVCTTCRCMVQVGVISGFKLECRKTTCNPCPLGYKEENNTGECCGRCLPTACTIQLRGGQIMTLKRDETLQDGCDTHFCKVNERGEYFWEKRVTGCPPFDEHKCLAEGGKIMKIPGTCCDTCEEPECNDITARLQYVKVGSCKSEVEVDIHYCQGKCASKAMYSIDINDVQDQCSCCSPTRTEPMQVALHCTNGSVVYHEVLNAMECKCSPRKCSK
From the text: The effectiveness of various aptamers in blocking vWF function in several biological assays is described in this Example.
In one assay botrocetin is used. Botrocetin, a protein isolated from snake venom, is known to induce von Willebrand Factor binding to the gpib receptor on live and fixed platelets. This reaction causes agglutination of suspensions of fixed platelets via vWF multimerization. In preparations of platelet rich plasma (hereinafter “PRP”), vWF/botrocetin induction of agglutination is followed by a second phase of platelet aggregation caused by metabolic activation of the platelets. These two reactions: vWF binding to fixed platelets and vWF mediated platelet aggregation, can be used to measure the activity of aptamers of the invention.

[3] = tested on: botrocetin induced platelet aggregation; experiment: Inhibition of botrocetin induced platelet aggregation (BIPA) in human PRP; assay type: cell-based; conditions: human platelet rich plasma
Experimental: In platelet rich plasma isolated from fresh human blood, botrocetin induces platelet aggregation via vWF. Platelet aggregate formation can be measured optically as an increase in % light transmittance on a Chronolog Model 490-4D Aggregometer because aggregation of platelets clarifies the plasma. Aptamers of the invention were analyzed for their ability to inhibit botrocetin induced platelet aggregation (“BIPA”) in human blood. An aptamer of the invention was considered to be active if it could prevent aggregate formation for six minutes post botrocetin addition.
In order to determine the activity of aptamers on live human platelets, BIPA assays were done using freshly prepared platelet rich plasma. Blood was obtained from healthy human donors who had not taken NSAIDS for at least five days. […] Collected blood was pooled into 15 mL conical tubes and was spun at 200 g for 20 minutes. The turbid, yellow layer of platelet rich plasma (“PRP”) was withdrawn from the tubes, pooled, and set aside at room temperature. The remaining blood was spun at 2500 g for ten minutes. The clarified layer of plasma, known as platelet poor plasma (“PPP”), was withdrawn and set aside at room temperature. PRP was aliquoted into cuvettes containing stir bars at a volume of 470 uL. A sample of 500 uL of PPP was aliquoted into a cuvette and placed in the PPP reference cell of the platelet aggregometer. Samples of PRP were prewarmed at 37 degrees C. in the platelet aggregometer for 3-5 minutes before being used in BIPA assays. First, the concentration of botrocetin needed to induce platelet aggregation for each individual donor was determined by titration. This concentration of botrocetin was used for the remainder of the experiment. Next, aptamer was assayed by adding titrations of aptamer (zero, 1 nM to 1000 nM) to prewarmed PRP for one minute, followed by addition of botrocetin. With platelet aggregation, an increase in amplitude of light transmission is seen (FIG. 8). The concentration at which platelet aggregation is blocked at 90% or greater after 6 minutes is reported in the final column of Table 26.

[4] = tested on: vWF dependent platelet plug formation, human whole blood; experiment: PFA-100 assay, human whole blood; assay type: cell-based; conditions: citrated human whole blood; minimum concentration that extends closing time to 300 seconds
From the text: Another assay of this Example, using the PFA-100 instrument, is an agonist independent but vWF dependent assay that uses the PFA-100 instrument (Harrison et al., Clin. Lab. Haem., v24, p 225-32 (2002)). The PFA-100 simulates the formation of a hemostatic plug under conditions of high shear force in vivo by recording the time required for a platelets to aggregate and block the flow of citrated whole blood through a microscopic aperture in a membrane coated with collagen and either epinephrine or ADP. This activity is von Willebrand factor dependent as high MW vWF multimers bind to immobilized collagen on the membrane and then bind to and activate platelets because of the shear force induced by drawing the blood through the microscopic aperture.
Fresh whole blood was collected from healthy non-steroidal anti-inflammatory drug (NSAID) free cynomolgus macaques. Aptamers were diluted with physiological saline from Aldon (Cat#9420306) in no-additive vacutainer tubes (Cat#366434, Becton Dickenson). Samples were loaded onto collagen/epinephrine test cartridges (Cat#B4170-20A, Dade Behring) which were used in the PFA-100 machine (Dade Behring). Trigger solution (Cat#B4170-50, Dade Behring) was used in the self-test and to pre-wet the test cartridges. O-ring cleaning pads (Cat#B4170-73, Dade Behring) were used in the self-test and in the O-ring cleaning process.
A self-test, which included an O-ring cleaning process, was always run on the PFA-100 machine before running any samples to ensure proper function of the machine.
During the entire experiment, the tubes of whole blood were gently inverted every five minutes to prevent settling.
In order to assay the titration of aptamer in whole blood, the aptamer was added to no-additive vacutainer tubes and diluted to the desired concentrations (ex: 0 nM, 1 nM to 1000 nM) using physiological saline such that the final volume was […]. When the PFA-100 was ready to run the next set of samples, 1940 μl of whole blood was added to the tube containing a concentration of aptamer. This tube was gently inverted three times to thoroughly mix the aptamer and blood. Samples were always run in duplicate on the PFA-100 machine. 800 μl of this blood mixture was loaded into the collagen/epinephrine test cartridges. The test cartridges were loaded onto the PFA-100 machine. The time of occlusion of the aperture was measured by the PFA-100, with a maximal time of 300 seconds. We estimate the IC95 in this assay to be the minimum concentration of aptamer that extends the closing time to 300 seconds.

[5] = pharmacokinetics after 3 mg/kg IV in cynomolgus macaques (Oligreen, HPLC); assay type: in vivo; conditions: cynomolgus monkey, in vivo, iv, 3 mg/kg
Experimental: ARC1368 (SEQ ID NO 291), 1779 (SEQ ID NO 320) and 1780 (SEQ ID NO 321) (as described in Example 2 above) were injected intravenously into cynomolgus macaques (n=3/group) at a dosage of 3 mg/kg which was expected to yield an instantaneous plasma concentration of 3 uM, approximately 30-fold higher than the putative effective dose. Subsequently, citrated blood samples were collected at regular intervals and processed for plasma.
Subsequently, plasma aptamer concentrations were determined using the Oligreen assay (Gray et al., Antisense and Nucleic Acid Drug Development 7 (3):133-140 (1997). The data were subsequently analyzed using the program WinNonlin to yield the pharmacokinetic parameters listed in Tables 29 to 31 below.
Following the Oligreen assay analysis, plasma aptamer concentrations were determined for the animals dosed with ARC1779 (SEQ ID NO 320) using a validated HPLC-based assay. The HPLC data were analyzed via noncompartmental and 2-compartment analysis using the program WinNonlin.

[6] = tested on: full length human vWF (SEQ ID NO 7); experiment: dot blot KD determination and extent of binding, full length human vWF; conditions: dot blot; for Kd: 12 point protein titration, 1xDPBS plus 0.1 mg/mL BSA, room temperature, 30 minutes, read-out: full length human vWF KD;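 on all read-outs here: dot blot binding of aptamers to full length human vWF across a protein titration, incubated 30 minutes at room temperature in 1x DPBS with BSA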
Experimental: Based on this initial screen, KDs were determined for 3 of the vWF dependent binding sequences using the dot blot assay. […] A 12 point protein titration was used in the dot blot assay (300 nM, 100 nM, 30 nM, 10 nM, 3 nM, 1 nM, 300 pM, 100 pM, 30 pM, 10 pM, 3 pM, 0 pM) in 1×DPBS plus 0.1 mg/mL BSA at room temperature for 30 minutes.
An 8 point protein titration was used in the dot blot binding assay (100n M, 30 nM, 10 nM, 3 nM, 1 nM, 300 pM, 100 pM, 0 pM)) in 1× Dulbecco's PBS containing 0.1 BSA (final volume of 50 uL) for 30 minutes at room temperature.

[7] = tested on: intra-arterial thrombosis of carotid arteries; experiment: cynomolgus macaque electrolytic thrombosis model; assay type: in vivo, cynomolgus monkeys; conditions: animals treated with Reopro
Experimental: A study was performed to test the efficacy of ARC1779 (SEQ ID NO 320) in inhibiting intra-arterial thrombosis in a well documented non-human primate electrolytic thrombosis model. See, e.g., Rote et al., Stroke, 1994: 25, 1223-1233.
Each animal was anesthetized prior to surgical preparation, intubated and maintained in anesthesia with isoflurane inhalant anesthetic to effect delivered through a volume-regulated respirator. An intravenous catheter was also placed in a peripheral vein for administration of lactated Ringer's solution during the procedure.
A catheter was placed in the femoral artery of each animal for continuous monitoring of arterial blood pressure. Similarly a catheter was placed in the femoral vein for blood sample collection. Each carotid artery was instrumented with a Doppler flow probe connected to a flow meter. The flow probes were placed around the artery at a point proximal to the insertion of the intra-arterial electrode and stenosis. The stenosis was placed around each carotid artery so that the […] was reduced by approximately 50% to 60% without altering the mean […]. Blood flow in the carotid arteries was monitored and recorded continuously throughout the observation periods.
Electrolytic injury to the intimal surface of each carotid artery was accomplished via placement of an intravascular electrode. Each electrode was connected to the positive pole of a constant current device and cathode connected to a distant subcutaneous site. Continuous current was delivered to each vessel for a period of 3 hours or for 30 minutes after complete occlusion, whichever was shorter.
Once the electrodes were placed on the right carotid artery (“RCA”) the animal was administered the test article as indicated in Table 32 above. Approximately 15 minutes after test article administration, the electrical current was applied at 100 μA. Blood samples and CBT measurements were collected at the time points specified in Blood Sample Collection Schedule as indicated in FIG. 31. The current was terminated ˜30 minutes after the blood flow signal remained stable at zero flow (which indicates an occlusive thrombus had been formed at the site) or after 180 minutes of electrical stimulation. Approximately 195 minutes after the test article was administered, the left carotid artery (“LCA”) had electrical current administered in a similar fashion as previously described for the RCA. After termination of all surgical procedures and sample collection each animal was euthanized.
An additional 10 cynomolgus monkeys (2.5 to 3.5 kg) were divided into treatment groups 5 to 7 and were treated according the regimen indicated in Table 33 below.
The animal procedure for each treatment group in Table 33 was conducted as reported for the animals in Example 5B.

[8] = tested on: rabbit vWF A1 domain (SEQ ID NO 6); experiment: 3-point dot blot screen, rabbit vWF A1 domain; assay type: binding; conditions: 3-point dot blot screen, 20 nM rabbit vWF A1 domain; ratio of fraction of aptamer bound with target protein to fraction bound without protein
Chain of rabbit vWF A1 domain (SEQ ID NO 6) (as listed by the source): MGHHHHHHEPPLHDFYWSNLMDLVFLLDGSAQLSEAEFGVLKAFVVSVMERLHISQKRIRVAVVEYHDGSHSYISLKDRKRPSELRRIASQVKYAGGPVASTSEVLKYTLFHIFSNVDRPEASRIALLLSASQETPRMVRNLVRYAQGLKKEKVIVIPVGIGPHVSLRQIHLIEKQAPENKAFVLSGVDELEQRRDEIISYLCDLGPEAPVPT
Method in brief: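 Rabbit vWF A1 domain binding was screened by dot blot using three conditions: no target protein, human vWF, and rabbit vWF A1 domain at 100 nM (20 nM in the screen run twice). Radiolabeled aptamer bound to nitrocellulose was quantified, and results are expressed as the ratio of bound fraction with protein to bound fraction without protein.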

[9] = tested on: full length human vWF; experiment: 3-point dot blot screen, full length human vWF; assay type: binding; conditions: 20 nM full length human vWF, ratio of fraction of aptamer bound with target protein to fraction bound without protein
Method in brief: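 Unique aptamer clones tested twice by nitrocellulose dot blot with no protein, 20 nM full-length human vWF or 20 nM rabbit vWF A1 domain. Value is fraction of aptamer bound with target divided by fraction bound without protein.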

[10] = tested on: rabbit vWF A1 domain (SEQ ID NO 6); experiment: dot blot KD determination, rabbit vWF A1 domain; assay type: binding; conditions: dot blot, 12 point protein titration, 1xDPBS plus 0.1 mg/mL BSA, room temperature, 30 minutes
Experimental: A 12 point protein titration was used in the dot blot assay (300 nM, 100 nM, 30 nM, 10 nM, 3 nM, 1 nM, 300 pM, 100 pM, 30 pM, 10 pM, 3 pM, 0 pM) in 1×DPBS plus 0.1 mg/mL BSA at room temperature for 30 minutes.

[11] = read-out: Inhibition of full length hVWF binding in FACS assay, Average IC50

## GGACGATCTGACTAGCTCCAGTGTTTTATCTAATAACCGTCC (DNA, backbone not given here) [SEQ ID NO 208, minimized DNA aptamer]
[1]; [11]
  IC50: 4300 pM
[2]
  activity in the cellular / biological assays: demonstrated activity

## PEG20K-NH2-dGdGdCdGTdGdCdAdGTdGdCdCTTdCdGdGdCdCdGTdGdCdGdGTdGdCdCTdCdCdGTdCdAdCdGdCdC-3T (GGCGTGCAGTGCCTTCGGCCGTGCGGTGCCTCCGTCACGCC; DNA, [invdT] at 3' end, 5' {PEG20K-NH2}, backbone not given here) [ARC1885, 20 kDa PEG conjugate of ARC1172]
[3]
  IC90: ~50 nM
[4]
  ~IC95 PFA-100 (nM) with citrated human whole blood: ~100 nM

## PEG40K-NH2-mGmCmGmUdGdCdAmGmUmGmCmCmUmUmCmGmGmCdCmG-s-TmGdCdGdGTmGmCdCmUdCdCmGmUdCmAmCmGmC-3T [ARC1780]
[3]
  IC90: ~100 nM
[4]
  ~IC95 PFA-100 (nM) with citrated human whole blood: ~100 nM
[5]
  AUCall, Mean: 751.065 µg·h/mL
  AUClast, Mean: 751.065 µg·h/mL
  MRTlast, Mean: 10.78 h
  distribution phase: prolonged distribution phase
  pharmacokinetic profile: mainly monophasic

## mGmCmGmUdGdCdAmGmUmGmCmCmUmUmCmGmGmCdCmGmTmGdCdGdGTmGmCdCmUdCdCmGmUmCmAmCmGmC-3T (mGmCmGmUdGdCdAmGmUmGmCmCmUmUmCmGmGmCdCmGmTmGdCdGdGdTmGmCdCmUdCdCmGmUmCmAmCmGmC[invdT]) [ARC1525]
[6]; in words
  binding to human vWF: no binding at all
[2]
  activity in the cellular / biological assays: did not display activity

B1: Reopro: IIbIIIa antagonist (antibody, chains of the INN, looked up, V domains shown)
VH: EVQLQQSGTVLARPGASVKMSCEASGYTFTNYWMHWVKQRPGQGLEWIGAIYPGNSDTSYIQKFKGKAKLTAVTSTTSVYMELSSLTNEDSAVYYCTLYDGYYVFAYWGQGTLVTVSA
VL: EIVLTQSPVTLSVTPGDSVSLSCRASRDISNNLHWFQQTSHESPRLLIKYASQSMSGIPSRFSGSGSGTDFTLSINSVETEDFGMYFCQQTNSWPYTFGGGTKLEIK
modifications: Fab
notes: IIbIIIa antagonist
[7]
  arteries that developed occlusive thrombi: 20%

B2: AMX238.E9: DNA SELEX 2 aptamer clone (nucleic acid)
DNA: CTACCTACGATCTGACTAGCGTGCAGTGCCCATCTTAGGCCGTGCGGTGCCTCCGTCACGCTTACTCTCATGTAGTTCC
modifications: DNA, backbone not given here
notes: DNA SELEX 2 aptamer clone
[8]
  Screen Rabbit/No Protein: 3.36
[9]
  Screen- Human/No Protein: 3.44
[6]
  Kd: 0.39 nM
[10]
  Kd: 5.3 nM
[1]; [11]
  IC50: 3400 pM
[1]; units in the cell: lower bound pM, upper bound nM, read-out: Inhibition of full length hVWF binding in FACS assay, IC50 range
  IC50: 772 to 6500 pM
[2]
  activity in the cellular / biological assays: slightly more potent

B3: AMX238.H5: DNA SELEX 2 aptamer clone (nucleic acid)
DNA: CTACCTACGATCTGACTAGCGTGCAGTGCCTATTCTAGGCCGTGCGGTGCCTCCGTCACGCTTACTCTCATGTAGTTCC
modifications: DNA, backbone not given here
notes: DNA SELEX 2 aptamer clone
[8]
  Screen Rabbit/No Protein: 3.46
[9]
  Screen- Human/No Protein: 3.75
[6]
  Kd: 0.33 nM
[10]
  Kd: 6 nM
[1]; [11]
  IC50: 658 pM
[2]
  activity in the cellular / biological assays: slightly more potent
